Patent US20230034906A1 (TRINOMAB BIOTECH, published 2023)

Legend:
Test in all cases: indirect ELISA, antibody titrated on gB glycoprotein mutant
[1] = target: T1, N208Q mutant of gB glycoprotein (gB_Towne protein) (human cytomegalovirus, strain Towne, UniProt F5HB53 25-700)
T1 construct: also called gB glycoprotein N208Q mutant
T1 chain: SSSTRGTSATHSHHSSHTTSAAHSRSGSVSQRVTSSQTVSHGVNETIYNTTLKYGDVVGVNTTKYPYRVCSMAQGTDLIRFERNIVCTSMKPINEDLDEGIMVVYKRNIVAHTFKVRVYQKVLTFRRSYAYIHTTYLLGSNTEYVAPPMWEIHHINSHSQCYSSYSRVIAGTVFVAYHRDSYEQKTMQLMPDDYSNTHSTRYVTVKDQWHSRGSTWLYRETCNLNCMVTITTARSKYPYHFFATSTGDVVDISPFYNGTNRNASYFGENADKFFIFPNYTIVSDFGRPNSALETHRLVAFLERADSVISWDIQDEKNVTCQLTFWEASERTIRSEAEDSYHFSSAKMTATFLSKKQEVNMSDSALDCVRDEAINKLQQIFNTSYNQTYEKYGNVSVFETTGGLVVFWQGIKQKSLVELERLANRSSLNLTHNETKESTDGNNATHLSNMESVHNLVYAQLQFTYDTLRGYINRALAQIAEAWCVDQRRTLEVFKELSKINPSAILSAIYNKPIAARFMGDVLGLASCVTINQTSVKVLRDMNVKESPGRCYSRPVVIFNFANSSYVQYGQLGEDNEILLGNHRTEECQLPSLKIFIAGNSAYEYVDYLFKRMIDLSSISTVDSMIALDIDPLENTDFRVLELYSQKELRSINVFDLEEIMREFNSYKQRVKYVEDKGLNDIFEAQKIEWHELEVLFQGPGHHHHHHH

[2] = target: T2, gB_Towne protein with N281 mutated into glutamine (human cytomegalovirus, strain Towne, UniProt F5HB53 25-700)
T2 chain: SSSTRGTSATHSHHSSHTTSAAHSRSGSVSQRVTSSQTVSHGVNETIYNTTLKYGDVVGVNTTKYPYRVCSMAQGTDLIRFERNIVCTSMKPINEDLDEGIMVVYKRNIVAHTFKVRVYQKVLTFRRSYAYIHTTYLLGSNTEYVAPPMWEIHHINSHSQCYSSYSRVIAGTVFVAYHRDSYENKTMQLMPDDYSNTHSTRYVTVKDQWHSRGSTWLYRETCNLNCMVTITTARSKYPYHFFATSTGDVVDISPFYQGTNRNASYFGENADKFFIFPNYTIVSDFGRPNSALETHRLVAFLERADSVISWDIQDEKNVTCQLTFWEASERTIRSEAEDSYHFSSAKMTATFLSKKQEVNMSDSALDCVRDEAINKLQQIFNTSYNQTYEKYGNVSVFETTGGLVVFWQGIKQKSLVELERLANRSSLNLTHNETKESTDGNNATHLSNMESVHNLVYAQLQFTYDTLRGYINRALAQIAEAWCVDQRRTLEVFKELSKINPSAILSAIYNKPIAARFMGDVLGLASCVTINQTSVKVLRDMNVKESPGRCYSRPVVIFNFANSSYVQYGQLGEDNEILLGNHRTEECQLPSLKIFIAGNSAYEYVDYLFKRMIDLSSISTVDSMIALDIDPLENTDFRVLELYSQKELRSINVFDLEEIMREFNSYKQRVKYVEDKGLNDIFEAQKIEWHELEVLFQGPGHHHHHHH

[3] = target: T3, gB_Towne protein with N383 mutated into glutamine (human cytomegalovirus, strain Towne, UniProt F5HB53 25-700)
T3 chain: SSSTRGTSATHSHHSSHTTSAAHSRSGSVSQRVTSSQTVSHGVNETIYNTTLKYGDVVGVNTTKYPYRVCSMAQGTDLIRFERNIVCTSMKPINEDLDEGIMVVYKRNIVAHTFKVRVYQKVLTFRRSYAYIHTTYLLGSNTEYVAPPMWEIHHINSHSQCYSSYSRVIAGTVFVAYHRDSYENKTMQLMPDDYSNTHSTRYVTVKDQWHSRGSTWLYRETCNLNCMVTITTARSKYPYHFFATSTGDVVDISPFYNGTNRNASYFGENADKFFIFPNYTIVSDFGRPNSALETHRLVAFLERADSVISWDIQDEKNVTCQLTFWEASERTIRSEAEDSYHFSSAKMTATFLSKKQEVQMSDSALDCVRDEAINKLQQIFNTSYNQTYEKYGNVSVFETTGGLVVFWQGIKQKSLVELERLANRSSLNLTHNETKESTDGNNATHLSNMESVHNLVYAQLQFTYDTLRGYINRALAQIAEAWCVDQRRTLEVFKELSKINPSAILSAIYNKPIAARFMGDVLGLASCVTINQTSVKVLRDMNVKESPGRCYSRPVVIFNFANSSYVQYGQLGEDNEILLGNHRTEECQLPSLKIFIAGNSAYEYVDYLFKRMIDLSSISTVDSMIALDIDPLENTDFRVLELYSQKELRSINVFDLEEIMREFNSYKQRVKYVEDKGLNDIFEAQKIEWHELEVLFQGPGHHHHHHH

[4] = target: T4, gB_Towne protein with N456 mutated into glutamine (human cytomegalovirus, strain Towne, UniProt F5HB53 25-700)
T4 chain: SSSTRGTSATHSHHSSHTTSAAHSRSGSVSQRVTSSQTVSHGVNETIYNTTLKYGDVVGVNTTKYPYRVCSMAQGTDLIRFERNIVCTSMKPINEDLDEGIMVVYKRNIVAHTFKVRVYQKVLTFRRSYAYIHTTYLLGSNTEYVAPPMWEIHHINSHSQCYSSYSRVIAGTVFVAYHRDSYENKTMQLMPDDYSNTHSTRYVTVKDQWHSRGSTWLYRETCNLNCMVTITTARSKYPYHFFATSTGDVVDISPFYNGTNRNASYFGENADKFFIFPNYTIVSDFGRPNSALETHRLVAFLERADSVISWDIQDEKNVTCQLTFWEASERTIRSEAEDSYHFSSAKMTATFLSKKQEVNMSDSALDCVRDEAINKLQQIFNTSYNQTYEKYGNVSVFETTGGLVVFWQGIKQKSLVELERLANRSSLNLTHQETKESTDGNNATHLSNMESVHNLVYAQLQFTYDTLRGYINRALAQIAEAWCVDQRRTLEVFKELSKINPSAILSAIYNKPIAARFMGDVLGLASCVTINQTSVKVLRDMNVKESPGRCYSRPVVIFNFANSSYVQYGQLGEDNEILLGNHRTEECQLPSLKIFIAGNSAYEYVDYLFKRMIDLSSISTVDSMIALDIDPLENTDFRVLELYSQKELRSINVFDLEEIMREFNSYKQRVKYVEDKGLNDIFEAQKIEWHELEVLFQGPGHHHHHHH

Measured: binding result

B1: TRN1019 (antibody, V domains shown)
VH: QVQLVQSGAEVKKPGESLKISCKGSGYTFTNYWIGWVRQMPGAGLEWMAIIFPRDSYSAYSPSFQGRVTISVDKSISTAYLHWSSLEASDTAVYYCAIYNDLRSGNSWGQGTPLIVSS
VL: DIQMTQSPSSLSASVGDRVTITCRASQSITKYLNWYQQKPGRAPKLLIHTTSTLQSGVPSRFSGSGSGTDFTLTISSLQLEDFGTYYCQQSFSTLWTFGQGTKLDIKR
notes: Fully human antibody; kappa light chain
binds: all assays above
